For test [1], the target named is T1, human A33 antigen, full length, on cells (human, UniProt Q99795 22-319).
T1 construct: CHO cells transfected with full length A33 cDNA (A33-CHO), or endogenous antigen of LS174T (colon) and AsPC-1 (pancreatic) tumour cells; The cell line is named under assay; also called A33-CHO; A33 antigen on LS174T cells
T1 sequence: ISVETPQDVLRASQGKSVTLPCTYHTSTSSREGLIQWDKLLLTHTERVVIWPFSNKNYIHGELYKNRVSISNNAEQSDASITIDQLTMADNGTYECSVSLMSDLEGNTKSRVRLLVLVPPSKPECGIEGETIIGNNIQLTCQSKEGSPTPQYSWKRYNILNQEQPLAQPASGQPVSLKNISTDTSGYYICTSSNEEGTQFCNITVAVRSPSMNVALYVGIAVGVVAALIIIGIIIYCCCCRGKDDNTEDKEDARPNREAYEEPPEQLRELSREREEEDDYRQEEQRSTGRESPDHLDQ
Briefly: IHC on LS174T FFPE sections, 20ug/mL. How it is done: (§1) Human IgG ELISA, rH-GPA33 Binding ELISA, cell Flow Cytometry (LS174T or AsPAC1), IHC staining (LS174T FFPE, tumor FFPE and Frozen tumor sections) and Coomassie blue staining of SDS-PAGE gel were used for the screening. Antibody in the culture supernatant was purified by Protein A/G purification in the column and dissolved in PBS buffer after three times dialysis. Aliquots of the antibodies were kept at -20° C. for storage.
(§2) Each combination was produced by transient transfection by using Expi293 Expression System Kit (Gibco, cat# A14635). […] Methods of Human IgG ELISA, rH-GPA33 Binding ELISA, LS174T cell Flow Cytometry, IHC staining on LS174T FFPE sections and Coomassie blue staining of SDS-PAGE gel were used for the initial screening.

Test [2] addresses T1, human A33 antigen, full length, on cells. Briefly: flow cytometry on LS174T cells, 0.37ug/mL. How it is done: as §1, §2
(In general: In flow cytometry, cells or beads pass a laser one at a time.)

The target is the same in test [3]. Briefly: flow cytometry, AsPC-1 cells, 2.3 ng/ml, experiment 1.
For test [4] the target is unchanged. As to the kind of experiment: flow cytometry, AsPC-1 cells, 2.3 ng/ml, experiment 2.
Test [5] has the same target. Briefly: flow cytometry, AsPC-1 cells, 6.9 ng/ml, experiment 1.
For test [6] the target is unchanged. Briefly: flow cytometry, AsPC-1 cells, 6.9 ng/ml, experiment 2.
The target in test [7] is T2, human recombinant A33 antigen (human, UniProt Q99795 22-235).
T2 construct: also called rH-GPA33; rHGPA33
T2 sequence: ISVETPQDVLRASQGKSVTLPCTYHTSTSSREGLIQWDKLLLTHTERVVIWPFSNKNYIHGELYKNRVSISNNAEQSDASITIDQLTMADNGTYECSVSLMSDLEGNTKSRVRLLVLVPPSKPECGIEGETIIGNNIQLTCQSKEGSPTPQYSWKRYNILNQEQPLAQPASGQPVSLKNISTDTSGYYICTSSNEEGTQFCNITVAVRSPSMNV
As to the kind of experiment: rH-GPA33 binding ELISA, first round supernatant.

Test [8] deals with T1, human A33 antigen, full length, on cells. Briefly: flow cytometry, AsPC-1 cells, 20.6 ng/ml, experiment 1.
For test [9] the target is unchanged. As to the kind of experiment: flow cytometry, AsPC-1 cells, 20.6 ng/ml, experiment 2.
Test [10] has the same target. Briefly: flow cytometry, AsPC-1 cells, 5000 ng/ml, experiment 1.
The target is the same in test [11]. Briefly: flow cytometry, AsPC-1 cells, 5000 ng/ml, experiment 2.
Test [12] shares this target. As to the kind of experiment: flow cytometry, AsPC-1 cells, 61.7 ng/ml, experiment 1.
For test [13] the target is unchanged. As to the kind of experiment: flow cytometry, AsPC-1 cells, 61.7 ng/ml, experiment 2.
For test [14] the target is unchanged. Briefly: flow cytometry, AsPC-1 cells, 185.2 ng/ml, experiment 1.
Test [15] has the same target. Briefly: flow cytometry, AsPC-1 cells, 185.2 ng/ml, experiment 2.
Test [16] has the same target. Briefly: flow cytometry, AsPC-1 cells, 555.6 ng/ml, experiment 1.
For test [17] the target is unchanged. As to the kind of experiment: flow cytometry, AsPC-1 cells, 555.6 ng/ml, experiment 2.
The target is the same in test [18]. As to the kind of experiment: flow cytometry, AsPC-1 cells, 1666.7 ng/ml, experiment 1.
The target is the same in test [19]. Briefly: flow cytometry, AsPC-1 cells, 1666.7 ng/ml, experiment 2.
For test [20], the target named is T2, human recombinant A33 antigen. As to the kind of experiment: rH-GPA33 binding ELISA, 2ug/mL of 31.1, supernatant. As for the experimental part: as §1, §2
For orientation: An ELISA detects its analyte on a solid surface through an enzyme-linked reagent.

The target of test [21] is T1, human A33 antigen, full length, on cells. As to the kind of experiment: flow cytometry, AsPC-1 cells, 0 ng/ml (background, no antibody), experiment 1.
Test [22] has the same target. As to the kind of experiment: flow cytometry, AsPC-1 cells, 0 ng/ml (background, no antibody), experiment 2.

B1: humanized 31.1 antibody #11 (sdr31.1-HC + sdr31.1-LC) (antibody, human IgG1, kappa, V domains shown)
VH: QIQLVQSGAEVKKPGASVKVSCKASGYTFTNYGMNWVRQAPGKGLEWMGWINPYTGEPTYAQKFQGRVTFTLDTSISTAYMELSRLRSDDTAVYFCARAYYGKYFDYWGQGTTVTVSS
VL: SIQMTQSPSSLSASVGDRVTITCRASQSISNDLAWYQQKPGQSPKLLIYYASNRYTGVPDRFSGSGYGTDFTLTISSLQPEDFAVYFCQQDYSSPLTFGAGTKLEIKR
notes: Full heavy and light chains; supernatant in the first screen, Protein A/G purified in the third round; used as negative control; also called Sample ID 11; sdr-HC + sdr-LC
For the molecule B1, the H-Score of IHC in test [1] was determined as 160 H-Score. Moreover, the MFI in test [2] was 5.6 MFI; in test [3], 3.4 MFI; in test [4], 3.5 MFI; in [5], 3.6 MFI; in test [6], 3.6 MFI; in test [8], 4 MFI. Further, the MFI in [9] turned out to be 4 MFI; in [10], 117 MFI; in test [11], 117 MFI; in test [12], 5.9 MFI; in [13], 5.3 MFI; in test [14] it was 8.2 MFI. For the same molecule, the MFI in [15] amounted to 8.2 MFI; in [16], 16.2 MFI; in [17] it was 16.6 MFI; in test [18] it was 38.9 MFI; in test [19] it was 39 MFI; in [21], 3.6 MFI. This molecule also yielded an MFI in test [22] of 3.6 MFI. In test [7], the binding result was “no binding”. Besides, the “OD Value of rH-GPA33 Binding ELISA” value in test [20] came out at 0.06 OD.

Source of the values: patent publication US20230295298A1 (PRECISION BIOLOGICS, published 2023).
